In article PMC13397619 one finds enrichment data, which are given here for 50 variants.

Sequences and labels used below:
B1: NLV3 TCR beta chain (CDR3β only) (parent)
chain: ASSPTGGSPSPLH
partner: MLVPMVATV

In one assay the parent is B1. The assay is described as follows: T-Switch: Jurkat TCRβ−/− cells expressing a CDR3 saturation-mutagenesis library, stained with two peptide-HLA-A*02:01 tetramers (original and novel peptide) plus anti-CD3, FACS-sorted into four gates, gDNA sequenced. To be noted: with HLA-A*02:01 with peptide … (NLV 3-1, the original bait), tetramers 1 µg/mL, 30 min on ice, DP and SW gates expanded about 10 days between rounds ('two to three rounds of selection' in the Methods), gate SP: higher = more of the variant in the gate that binds the original peptide and not the novel one = retained original binding. Fold enrichment of the CDR3 variant in one FACS gate of a two-tetra, unresolved parent, parent is a CDR3 fragment, scale: fold enrichment, numbering: sequential-on-construct, sequence ….
Turning to […] (CDR3 as printed); A1W derived by comparing it with the table's wild-type CDR3 ASSPTGGSPSPLH, the enrichment turned out to be 0.
As for […] (CDR3 as printed); P9A derived by comparing it with the table's wild-type CDR3 ASSPTGGSPSPLH, the enrichment was determined as 4.97.
[…] (CDR3 as printed); S3N derived by comparing it with the table's wild-type CDR3 ASSPTGGSPSPLH: the enrichment came to 4.09.
Turning to […] (CDR3 as printed); L12M derived by comparing it with the table's wild-type CDR3 ASSPTGGSPSPLH, the enrichment is 2.27.
On the same count and under the same terms, then […] (CDR3 as printed); T5Y derived by comparing it with the table's wild-type CDR3 ASSPTGGSPSPLH, with 15.6.
In the case of […] (CDR3 as printed); G6D derived by comparing it with the table's wild-type CDR3 ASSPTGGSPSPLH, the enrichment stood at 0.39.
On to […] (CDR3 as printed); S10Q derived by comparing it with the table's wild-type CDR3 ASSPTGGSPSPLH, for which the enrichment was 5.52.
Same read-out and setting: then […] (CDR3 as printed); P4A derived by comparing it with the table's wild-type CDR3 ASSPTGGSPSPLH, with 1.98.
For […] (CDR3 as printed); H13F derived by comparing it with the table's wild-type CDR3 ASSPTGGSPSPLH, the enrichment came out at 4.3.
On the same count and under the same terms, with […] (CDR3 as printed); P4S derived by comparing it with the table's wild-type CDR3 ASSPTGGSPSPLH the figure was 0.723; with […] (CDR3 as printed); L12E derived by comparing it with the table's wild-type CDR3 ASSPTGGSPSPLH, 0; with […] (CDR3 as printed); A1C derived by comparing it with the table's wild-type CDR3 ASSPTGGSPSPLH, 1.12.
As to […] (CDR3 as printed); G6Y derived by comparing it with the table's wild-type CDR3 ASSPTGGSPSPLH, the enrichment turned out to be 0.
Same read-out and setting: then […] (CDR3 as printed); S8V derived by comparing it with the table's wild-type CDR3 ASSPTGGSPSPLH, with 1.71; and […] (CDR3 as printed); S2H derived by comparing it with the table's wild-type CDR3 ASSPTGGSPSPLH, with 0.863; and […] (CDR3 as printed); A1P derived by comparing it with the table's wild-type CDR3 ASSPTGGSPSPLH, with 0.
Turning to […] (CDR3 as printed); A1R derived by comparing it with the table's wild-type CDR3 ASSPTGGSPSPLH, the enrichment stood at 0.
For […] (CDR3 as printed); P9Q derived by comparing it with the table's wild-type CDR3 ASSPTGGSPSPLH, the enrichment was 0.
On to […] (CDR3 as printed); G7L derived by comparing it with the table's wild-type CDR3 ASSPTGGSPSPLH, for which the enrichment turned out to be 0.
In the case of […] (CDR3 as printed); P11K derived by comparing it with the table's wild-type CDR3 ASSPTGGSPSPLH, the enrichment turned out to be 8.18.
Take […] (CDR3 as printed); P4Q derived by comparing it with the table's wild-type CDR3 ASSPTGGSPSPLH: the enrichment is 3.21.
For […] (CDR3 as printed); A1L derived by comparing it with the table's wild-type CDR3 ASSPTGGSPSPLH, the enrichment stood at 0.
As for […] (CDR3 as printed); P4H derived by comparing it with the table's wild-type CDR3 ASSPTGGSPSPLH, the enrichment was 0.
Turning to […] (CDR3 as printed); S8Q derived by comparing it with the table's wild-type CDR3 ASSPTGGSPSPLH, the enrichment was found to be 0.
Regarding […] (CDR3 as printed); G6Q derived by comparing it with the table's wild-type CDR3 ASSPTGGSPSPLH, the enrichment amounted to 0.
In the case of […] (CDR3 as printed); P9T derived by comparing it with the table's wild-type CDR3 ASSPTGGSPSPLH, the enrichment came out at 0.619.
As for […] (CDR3 as printed); S8T derived by comparing it with the table's wild-type CDR3 ASSPTGGSPSPLH, the enrichment is 0.
On the same count and under the same terms, then […] (CDR3 as printed); P11M derived by comparing it with the table's wild-type CDR3 ASSPTGGSPSPLH, with 7.79.
On to […] (CDR3 as printed); G6N derived by comparing it with the table's wild-type CDR3 ASSPTGGSPSPLH, for which the enrichment stood at 0.
Consider […] (CDR3 as printed); G7I derived by comparing it with the table's wild-type CDR3 ASSPTGGSPSPLH, for which the enrichment was determined as 0.
Regarding […] (CDR3 as printed); S8P derived by comparing it with the table's wild-type CDR3 ASSPTGGSPSPLH, the enrichment was found to be 0.
As to […] (CDR3 as printed); H13I derived by comparing it with the table's wild-type CDR3 ASSPTGGSPSPLH, the enrichment was 11.3.
Consider […] (CDR3 as printed); T5L derived by comparing it with the table's wild-type CDR3 ASSPTGGSPSPLH, for which the enrichment came out at 9.97.
As to […] (CDR3 as printed); S2P derived by comparing it with the table's wild-type CDR3 ASSPTGGSPSPLH, the enrichment was 0.
The same measure, in the same setting: then […] (CDR3 as printed); P4R derived by comparing it with the table's wild-type CDR3 ASSPTGGSPSPLH, with 0.316; and […] (CDR3 as printed); T5P derived by comparing it with the table's wild-type CDR3 ASSPTGGSPSPLH, with 0.
With […] (CDR3 as printed); A1I derived by comparing it with the table's wild-type CDR3 ASSPTGGSPSPLH, the enrichment stood at 0.
On the same count and under the same terms, with […] (CDR3 as printed); S8H derived by comparing it with the table's wild-type CDR3 ASSPTGGSPSPLH the figure was 0; with […] (CDR3 as printed); G7V derived by comparing it with the table's wild-type CDR3 ASSPTGGSPSPLH, 0.
In the case of […] (CDR3 as printed); G6P derived by comparing it with the table's wild-type CDR3 ASSPTGGSPSPLH, the enrichment is 0.
[…] (CDR3 as printed); L12I derived by comparing it with the table's wild-type CDR3 ASSPTGGSPSPLH: the enrichment was 1.14.
Consider […] (CDR3 as printed); S2Q derived by comparing it with the table's wild-type CDR3 ASSPTGGSPSPLH, for which the enrichment turned out to be 0.
For […] (CDR3 as printed); L12F derived by comparing it with the table's wild-type CDR3 ASSPTGGSPSPLH, the enrichment was determined as 0.
The same measure, in the same setting: then […] (CDR3 as printed); G6I derived by comparing it with the table's wild-type CDR3 ASSPTGGSPSPLH, with 0.
On to […] (CDR3 as printed); S3F derived by comparing it with the table's wild-type CDR3 ASSPTGGSPSPLH, for which the enrichment is 0.
Consider […] (CDR3 as printed); P11H derived by comparing it with the table's wild-type CDR3 ASSPTGGSPSPLH, for which the enrichment stood at 0.
Consider […] (CDR3 as printed); H13T derived by comparing it with the table's wild-type CDR3 ASSPTGGSPSPLH, for which the enrichment came out at 5.47.
As to […] (CDR3 as printed); G7Y derived by comparing it with the table's wild-type CDR3 ASSPTGGSPSPLH, the enrichment worked out at 4.27.
Consider […] (CDR3 as printed); G6A derived by comparing it with the table's wild-type CDR3 ASSPTGGSPSPLH, for which the enrichment is 8.12.

The assay is the same for the next values; noted with them: with HLA-A*02:01 with peptide … (NLV 3-1, the original bait), tetramers 1 µg/mL, 30 min on ice, DP and SW gates expanded about 10 days between rounds ('two to three rounds of selection' in the Methods), gate SP: higher = more of the variant in the gate that binds the original peptide and not the novel one = retained original binding. Fold enrichment of the CDR3 variant in one FACS gate of a two-tetra, unresolved parent, parent is a CDR3 fragment, zero in all gates, scale: fold enrichment, numbering: ….
Take […] (CDR3 as printed); G7P derived by comparing it with the table's wild-type CDR3 ASSPTGGSPSPLH: the enrichment was determined as 0.
